{"source": "the RNAGym collection of RNA variant scans (doi:10.1021/acssynbio.7b00057)", "parents": {"B1": {"name": "Pistol ribozyme (parent)", "chain": "GGGUCGUUGUUCCAUAAUCGCGUGGAUAUGGCACGCAAGUUUCUACCGGGCACCGUAAAUGUCCGACUGGAGCCGUUCGGGCGGCUAUAAACAGACCUCAGGCCCGAAGCGUGGCGGCACCUGCCGCCGGUGGUAAAAAAGAUCGGAAGAGCACACGUCU"}}}
{"variants_of": "B1", "assay": "aptazyme ON/OFF ratio, guanine; higher = stronger switching; co-transcriptional cleavage with and without guanine"}
{"variant": "U8C G9C U10C C12A", "aptazyme ON/OFF ratio": 1.06}
{"variant": "U8C G9C U10G U11C C12A C13U", "aptazyme ON/OFF ratio": 1.13}
{"variant": "U8C G9C U10G U11C C12A C13A", "aptazyme ON/OFF ratio": 1.19}
{"variant": "U8C G9C U10G U11C C12A C13G", "aptazyme ON/OFF ratio": 1.14}
{"variant": "U8C G9C C12A C13G", "aptazyme ON/OFF ratio": 1.1}
{"variant": "U8C G9C C12A C13U", "aptazyme ON/OFF ratio": 1.1}
{"variant": "U8C G9C C12A C13A", "aptazyme ON/OFF ratio": 1.08}
{"variant": "U8C G9C U10A U11G C12G", "aptazyme ON/OFF ratio": 1.32}
{"variant": "U8C G9C U10A U11G C12U", "aptazyme ON/OFF ratio": 1.22}
{"variant": "U8C G9C U10A U11G C12A", "aptazyme ON/OFF ratio": 1.07}
{"variant": "U8C G9C C12U C13U", "aptazyme ON/OFF ratio": 1.13}
{"variant": "U8C G9C C12U C13G", "aptazyme ON/OFF ratio": 1.07}
{"variant": "U8C G9C C12U C13A", "aptazyme ON/OFF ratio": 1.05}
{"variant": "U8C G9C U10A C12A C13G", "aptazyme ON/OFF ratio": 1.15}
{"variant": "U8C G9C U10A C12A C13U", "aptazyme ON/OFF ratio": 1.11}
{"variant": "U8C G9C U10A C12A C13A", "aptazyme ON/OFF ratio": 1.09}
{"variant": "U8C G9C U10G U11G C12G C13U", "aptazyme ON/OFF ratio": 1.11}
{"variant": "U8C G9C U10G U11G C12G C13A", "aptazyme ON/OFF ratio": 1.13}
{"variant": "U8C G9C U10G U11G C12G C13G", "aptazyme ON/OFF ratio": 1.1}
{"variant": "U8C G9A U10G U11G C12G C13G", "aptazyme ON/OFF ratio": 1.09}
{"variant": "U8C G9A U10G U11G C12G C13A", "aptazyme ON/OFF ratio": 1.1}
{"variant": "U8C G9A U10G U11G C12G C13U", "aptazyme ON/OFF ratio": 1.11}
{"variant": "U8C G9C U10C U11A C12A C13U", "aptazyme ON/OFF ratio": 1.02}
{"variant": "U8C G9C U10C U11A C12A C13G", "aptazyme ON/OFF ratio": 1.05}
{"variant": "U8C G9C U10C U11A C12A C13A", "aptazyme ON/OFF ratio": 1.04}
{"variant": "U8C G9A U11C C12A", "aptazyme ON/OFF ratio": 1.3}
{"variant": "U8C G9A U11C C12G", "aptazyme ON/OFF ratio": 1.29}
{"variant": "U8C G9A U11C C12U", "aptazyme ON/OFF ratio": 1.16}
{"variant": "U8C G9C U10A U11C C12U C13G", "aptazyme ON/OFF ratio": 1.17}
{"variant": "U8C G9C U10A U11C C12U C13U", "aptazyme ON/OFF ratio": 1.19}
{"variant": "U8C G9C U10A U11C C12U C13A", "aptazyme ON/OFF ratio": 1.19}
{"variant": "U8C G9C U10C U11A C12G", "aptazyme ON/OFF ratio": 1.01}
{"variant": "U8C G9C U10C U11A C12A", "aptazyme ON/OFF ratio": 1.04}
{"variant": "U8C G9C U10C U11A C12U", "aptazyme ON/OFF ratio": 1.02}
{"variant": "U8C G9C U10G U11C", "aptazyme ON/OFF ratio": 1.12}
{"variant": "U8C G9C U10G U11A", "aptazyme ON/OFF ratio": 1.1}
{"variant": "U8C G9C U10G U11G", "aptazyme ON/OFF ratio": 1.11}
{"variant": "U8C G9A U10G U11C C12U C13G", "aptazyme ON/OFF ratio": 1.15}
{"variant": "U8C G9A U10G U11C C12U C13U", "aptazyme ON/OFF ratio": 1.28}
{"variant": "U8C G9A U10G U11C C12U C13A", "aptazyme ON/OFF ratio": 1.2}
{"variant": "U8C G9C U10G C12G", "aptazyme ON/OFF ratio": 1.19}
{"variant": "U8C G9C U10G C12U", "aptazyme ON/OFF ratio": 1.12}
{"variant": "U8C G9C U10G C12A", "aptazyme ON/OFF ratio": 1.2}
{"variant": "U8C G9C U10C C13U", "aptazyme ON/OFF ratio": 1.12}
{"variant": "U8C G9C U10C C13A", "aptazyme ON/OFF ratio": 1.01}
{"variant": "U8C G9C U10C C13G", "aptazyme ON/OFF ratio": 1.05}
{"variant": "U8C G9C U10A U11C C12A C13G", "aptazyme ON/OFF ratio": 1.18}
{"variant": "U8C G9C U10A U11C C12A C13U", "aptazyme ON/OFF ratio": 1.22}
{"variant": "U8C G9C U10A U11C C12A C13A", "aptazyme ON/OFF ratio": 1.27}
{"variant": "U8C G9C U10A U11A", "aptazyme ON/OFF ratio": 1.24}
{"variant": "U8C G9C U10A U11C", "aptazyme ON/OFF ratio": 1.05}
{"variant": "U8C G9C U10A U11G", "aptazyme ON/OFF ratio": 1.16}
{"variant": "U8C G9C U10C U11C", "aptazyme ON/OFF ratio": 0.964}
{"variant": "U8C G9C U10C U11A", "aptazyme ON/OFF ratio": 1.02}
{"variant": "U8C G9C U10C U11G", "aptazyme ON/OFF ratio": 0.956}
{"variant": "U8C G9C U10A C12U C13G", "aptazyme ON/OFF ratio": 1.12}
{"variant": "U8C G9C U10A C12U C13A", "aptazyme ON/OFF ratio": 1.08}
{"variant": "U8C G9C U10A C12U C13U", "aptazyme ON/OFF ratio": 1.14}
{"variant": "U8C G9C U11A", "aptazyme ON/OFF ratio": 1.18}
{"variant": "U8C G9C U11C", "aptazyme ON/OFF ratio": 1.06}
{"variant": "U8C G9A U10G U11C C12U", "aptazyme ON/OFF ratio": 1.07}
{"variant": "U8C G9A U10G U11C C12A", "aptazyme ON/OFF ratio": 1.23}
{"variant": "U8C G9A U10G U11C C12G", "aptazyme ON/OFF ratio": 1.23}
{"variant": "U8C G9C U10C C12A C13A", "aptazyme ON/OFF ratio": 1}
{"variant": "U8C G9C U10C C12A C13G", "aptazyme ON/OFF ratio": 1.08}
{"variant": "U8C G9C U10C C12A C13U", "aptazyme ON/OFF ratio": 1.03}
{"variant": "U8C G9C U10C U11G C12G", "aptazyme ON/OFF ratio": 1.11}
{"variant": "U8C G9C U10C U11G C12A", "aptazyme ON/OFF ratio": 1.1}
{"variant": "U8C G9C U10C U11G C12U", "aptazyme ON/OFF ratio": 1.07}
{"variant": "U8C G9A U11G", "aptazyme ON/OFF ratio": 1.45}
{"variant": "U8C G9A U11A", "aptazyme ON/OFF ratio": 1.25}
{"variant": "U8C G9A U11C", "aptazyme ON/OFF ratio": 1.09}
{"variant": "U8C G9C U10A C13A", "aptazyme ON/OFF ratio": 1.08}
{"variant": "U8C G9C U10A C13U", "aptazyme ON/OFF ratio": 1.07}
{"variant": "U8C G9C U10A C13G", "aptazyme ON/OFF ratio": 1.16}
{"variant": "U8C G9C C12G", "aptazyme ON/OFF ratio": 1.19}
{"variant": "U8C G9C C12U", "aptazyme ON/OFF ratio": 1.08}
{"variant": "U8C G9C C12A", "aptazyme ON/OFF ratio": 1.16}
{"variant": "U8C G9A U11A C12U C13G", "aptazyme ON/OFF ratio": 1.14}
{"variant": "U8C G9A U11A C12U C13U", "aptazyme ON/OFF ratio": 1.29}
{"variant": "U8C G9A U11A C12U C13A", "aptazyme ON/OFF ratio": 1.21}
{"variant": "U8C G9C U10G U11C C12G C13A", "aptazyme ON/OFF ratio": 1.14}
{"variant": "U8C G9C U10G U11C C12G C13U", "aptazyme ON/OFF ratio": 1.17}
{"variant": "U8C G9C U10G U11C C12G C13G", "aptazyme ON/OFF ratio": 1.18}
